# Test results from publication PMC12126490, “The HP1 box of KAP1 organizes HP1α for silencing of endogenous retroviral elements in embryonic stem cells” (Nature Communications, 2025).
# B1: GFP-KAP1FR: GFP labeled KAP1 fragment (aa 114–834 of KAP1) (protein)
# chain: VVDCPVCKQQCFSKDIVENYFMRDSGSKAATDAQDANQCCTSCEDNAPATSYCVECSEPLCETCVEAHQRVKYTKDHTVRSTGPAKSRDGERTVYCNVHKHEPLVLFCESCDTLTCRDCQLNAHKDHQYQFLEDAVRNQRKLLASLVKRLGDKHATLQKSTKEVRSSIRQVSDVQKRVQVDVKMAILQIMKELNKRGRVLVNDAQKVTEGQQERLERQHWTMTKIQKHQEHILRFASWALESDNNTALLLSKKLIYFQLHRALKMIVDPVEPHGEMKFQWDLNAWTKSAEAFGKIVAERPGTNSTGPAPMAPPRAPGPLSKQGSGSSQPMEVQEGYGFGSGDDPYSSAEPHVSGVKRSRSGEGEVSGLMRKVPRVSLERLDLDLTADSQPPVFKVFPGSTTEDYNLIVIERGAAAAATGQPGTAPAGTPGAPPLAGMAIVKEEETEAAIGAPPTATEGPETKPVLMALAEGPGAEGPRLASPSGSTSSGLEVVAPEGTSAPGGGPGTLDDSATICRVCQKPGDLVMCNQCEFCFHLDCHLPALQDVPGEEWSCSLCHVLPDLKEEDGSLSLDGADSTGVVAKLSPANQRKCERVLLALFCHEPCRPLHQLATDSTFSLDQPGGTLDLTLIRARLQEKLSPPYSSPQEFAQDVGRMFKQFNKLTEDKADVQSIIGLQRFFETRMNEAFGDTKFSAVLVEPPPMSLPGAGLSSQELSGGPGDG
# modifications: left off: GFP, end not stated, kept
# Experiments:
# [1] = tested on: endogenous HP1α in KAP1^−/− ESCs; assay: immunofluorescence of endogenous HP1α; type: cell-based; settings: KAP1^−/− mouse ESCs stably expressing the GFP-labeled construct, anti-HP1α antibody, DAPI
# Experimental: The constructs coding for GFP-KAP1RF and the P486A/V488A/L490A mutant were transfected into 1 ×10^5 KAP1^−/− mouse ESCs using Lipofectamine 3000 (Invitrogen). Forty-eight hours post-transfection, cells were trypsinized and plated at a colony density in selection medium containing 10 μg/ml blasticidin (Thermo Fisher Sci) for one week. The selection process was repeated once to establish stable GFP-KAP1 expressing cell lines.
# For immunostaining, mouse ESCs were cultured on Geltrex-coated coverslips (Life Technologies) in DMEM supplemented with 16% fetal bovine serum, 0.1 mM β-mercaptoethanol (Invitrogen), 2 mM L-glutamine, 1× MEM non-essential amino acids, 100 U/ml penicillin, 100 µg/ml streptomycin (PAA), 2i (1 μM PD032591 and 3 μM CHIR99021 (Axon Medchem, Netherlands) and 1000 U/ml recombinant LIF (Millipore). Coverslips were rinsed twice with PBS (pH 7.4; 140 mM NaCl, 2.7 mM KCl, 6.5 mM Na2HPO4, 1.5 mM KH2PO4), followed by fixation with 3.7% formaldehyde (Sigma) for 10 min. Fixed cells were washed three times (10 min each) with PBST (PBS + 0.01% Tween-20), permeabilized in 0.5% Triton X-100 for 10 min, and washed twice (10 min each) with PBST. Primary and secondary antibodies were prepared in blocking solution (PBST + 3% BSA). […]
# [2] = tested on: dsRed-HP1α in E14 ESC cells; assay: heterochromatin half-FRAP (MOCHA-FRAP); type: cell-based, mouse; settings: bleached and non-bleached half of heterochromatin compartment, living ESCs
# Experimental: E14 ESC cells were transfected with 3 µg of pdsRed-HP1α and either pGFP or pGFP-KAP1FR using AMAXA nucleofector (Lonza), seeded in slide chambers containing high precision glass overnight at 37 °C and 5% CO2. Samples were analyzed using a Leica SP5-II confocal point scanner microscope equipped with 488 nm Argon ion and 561 nm DPSS 50 mW lasers, a AOBS beams splitter and a HyD Hybrid detector. Cells were first scanned for GFP^+ using a HCX PL APO 100x Corr CS objective, and a section of 64 × 64 pixels with 0.8-0.6 µm/px size containing one heterochromatin compartment of these cells was selected. Subsequently, a point region of interest was used to bleach the half of the heterochromatin compartment for 100 ms at maximum intensity of the laser (488 and 561 nm). The recovery was documented for 15 s with a frame rate of approximately 100 ms/frame. MOCHA-FRAP analysis was performed as in ref. [36].
# [3] = tested on: DNA-induced HP1α phase separated droplets; assay: in vitro droplet assay; settings: 50 µM HP1α, 0.18 µM 601 DNA
# Text: For droplet assays, cDNA of full-length HP1α was cloned into a pET28 expression vector. His-tag fusion HP1α was expressed in E. coli and purified as in ref. [51]. cDNA of the KAP1FR fragment (aa 114–834) was cloned into a pCAG-GFP expression vector, and the P486A/V488A/L490A mutant of GFP-KAP1FR was generated using overlap extension PCR. Purification of GFP-KAP1FR proteins was described in ref. [52].
# For the droplet assay, Widom 601 DNA was amplified by PCR using a plasmid coding for 12× 601 DNA with primers as follows: 601 DNA_F: […] and 601 DNA_R: TGCACAGGATGTATATATCTGACAC. HP1α was concentrated to ~10 µg/µl using Amicon concentrators. The buffer changes for both HP1α and GFP-KAP1FR solutions were carried out using Zeba™ Spin Desalting Columns with a buffer containing 20 mM HEPES at pH 7.2, 75 mM KCl, and 1 mM DTT. For visualization of His-tagged-HP1α within the droplets, 500 ng of protein was labeled with the 647 N fluorescent label using the Monolith NT™ Protein Labeling Kit RED-NHS from Nano Temper. To form HP1α droplets, 50 µM of HP1α was incubated with 0.18 µM of 601 DNA for 3 min and dropped into ibidi chamber (µ-Slide 18 Well). Subsequently, 50 ng of the labeled HP1α and 100 ng of GFP-KAP1FR (wild type or mutant) were added into HP1α/DNA droplets. The images of the droplets were collected using a Nikon TiE microscope equipped with a Yokogawa CSU-W1 spinning-disk confocal unit (50 μm pinhole size), an Andor Borealis illumination unit, Andor ALC600 laser beam combiner (405 nm/488 nm/561 nm/640 nm), Andor IXON 888 Ultra EMCCD camera, and a Nikon 100×/1.45 NA oil immersion objective. The size and intensity of HP1α phase-separated droplets were analyzed using ImageJ.
molecule,measurement,setting,value
B1,distribution of endogenous HP1α (puncta),[1],Endogenous HP1α formed large puncta and colocalized with GFP-KAP1FR
same,fluorescence recovery of HP1α,[2],neither the bleached half (thin purple line) nor the non-bleached half (thick purple line) fully recovered their fluorescence
same,sequestration of 647N labeled HP1α into droplets,"[3]; 20 mM HEPES pH 7.2, 75 mM KCl, 1 mM DTT, 100 ng GFP-KAP1FR, 50 ng labeled HP1α",sequestered HP1a into the interior of droplets within a minute
same,localization of GFP-KAP1FR in droplets,[3]; confocal microscopy,concentrated at the periphery of the droplets
